Tests used:
VcDnaB [1] = target: T1, VcDnaB (Vibrio cholerae, UniProt A0A085R2T8 1-468); assay: BLI; 1 mM ATP?; 100 nM VcDnaB + 25-100 nM VcDciA; loading increased, maximal at 25 nM; BLI: 50 mM Hepes pH 7.0, 150 mM NaCl, 0.1% Tween, 1 mM ATP, temperature not stated; NMR: 20 mM phosphate pH 5.6, 50 mM NaCl, 303 K (also 293 K), 26 uM protein; settings: protein: recombinant; chain copies: 6; label: 5' biotin
VcDnaB [2] = target: T1, VcDnaB; assay: BLI; ATP; + VcDciA 25-100 nM; comparable to ssDNA; BLI: 50 mM Hepes pH 7.0, 150 mM NaCl, 0.1% Tween, 1 mM ATP, temperature not stated; NMR: 20 mM phosphate pH 5.6, 50 mM NaCl, 303 K (also 293 K), 26 uM protein; settings: protein: recombinant; chain copies: 6; label: 5' biotin on strand 1; fork, 38 nt hybridized zone; non-complementary tails (strand 1 3' side, strand 2 5' side); 5' overhang 2 nt (AA) of strand 1

B1: ssDNA oso23 (ssDNA)
DNA: AAGCGTGGTGAAACCTACCTCTGATTCGAAACCTTCACTTTACGTGGTCTGGCGTGGTGAATGTTCGTCGGCGTGCTCGA
VcDnaB [1]
  binding result: binds

B2: foDNA oso23/oso18 (dsDNA)
DNA 1: AAGCGTGGTGAAACCTACCTCTGATTCGAAACCTTCACTTTACGTGGTCTGGCGTGGTGAATGTTCGTCGGCGTGCTCGA
DNA 2: CCAGGAATACGGCAAGTTGGAGGCCGGGCTGGATGGAGACTAAGCTTTGGAAGTGAAGGTTTCGAATCAGAGGTAGGTTTCACCACGC
VcDnaB [2]
  binding result: binds
